Measurements published in paper PMC6764996, “Molecular basis of microhomology-mediated end-joining by purified full-length Polθ”.

Target: Polθ (full-length DNA polymerase theta) (human, UniProt O75417 1-2590)
Experiment: fluorescence anisotropy; 1 mM ATP, 10 mM MgCl2; KD printed only in figure; significantly lower than Polθ-pol and Polθ-hel; Anisotropy: 25 mM Tris-HCl pH 8.8, 1 mM DTT, 0.01% NP-40, 10 mM MgCl2, 10% glycerol, 0.1 mg/ml BSA, 1 mM ATP, 30 mM NaCl, room temp, at least 30 min, 10 nM FAM-ssDNA
Conditions: protein: recombinant; tags: 3xFLAG (N-terminal); label: 5' FAM

Chain of Polθ (full-length DNA polymerase theta) (O75417 whole entry): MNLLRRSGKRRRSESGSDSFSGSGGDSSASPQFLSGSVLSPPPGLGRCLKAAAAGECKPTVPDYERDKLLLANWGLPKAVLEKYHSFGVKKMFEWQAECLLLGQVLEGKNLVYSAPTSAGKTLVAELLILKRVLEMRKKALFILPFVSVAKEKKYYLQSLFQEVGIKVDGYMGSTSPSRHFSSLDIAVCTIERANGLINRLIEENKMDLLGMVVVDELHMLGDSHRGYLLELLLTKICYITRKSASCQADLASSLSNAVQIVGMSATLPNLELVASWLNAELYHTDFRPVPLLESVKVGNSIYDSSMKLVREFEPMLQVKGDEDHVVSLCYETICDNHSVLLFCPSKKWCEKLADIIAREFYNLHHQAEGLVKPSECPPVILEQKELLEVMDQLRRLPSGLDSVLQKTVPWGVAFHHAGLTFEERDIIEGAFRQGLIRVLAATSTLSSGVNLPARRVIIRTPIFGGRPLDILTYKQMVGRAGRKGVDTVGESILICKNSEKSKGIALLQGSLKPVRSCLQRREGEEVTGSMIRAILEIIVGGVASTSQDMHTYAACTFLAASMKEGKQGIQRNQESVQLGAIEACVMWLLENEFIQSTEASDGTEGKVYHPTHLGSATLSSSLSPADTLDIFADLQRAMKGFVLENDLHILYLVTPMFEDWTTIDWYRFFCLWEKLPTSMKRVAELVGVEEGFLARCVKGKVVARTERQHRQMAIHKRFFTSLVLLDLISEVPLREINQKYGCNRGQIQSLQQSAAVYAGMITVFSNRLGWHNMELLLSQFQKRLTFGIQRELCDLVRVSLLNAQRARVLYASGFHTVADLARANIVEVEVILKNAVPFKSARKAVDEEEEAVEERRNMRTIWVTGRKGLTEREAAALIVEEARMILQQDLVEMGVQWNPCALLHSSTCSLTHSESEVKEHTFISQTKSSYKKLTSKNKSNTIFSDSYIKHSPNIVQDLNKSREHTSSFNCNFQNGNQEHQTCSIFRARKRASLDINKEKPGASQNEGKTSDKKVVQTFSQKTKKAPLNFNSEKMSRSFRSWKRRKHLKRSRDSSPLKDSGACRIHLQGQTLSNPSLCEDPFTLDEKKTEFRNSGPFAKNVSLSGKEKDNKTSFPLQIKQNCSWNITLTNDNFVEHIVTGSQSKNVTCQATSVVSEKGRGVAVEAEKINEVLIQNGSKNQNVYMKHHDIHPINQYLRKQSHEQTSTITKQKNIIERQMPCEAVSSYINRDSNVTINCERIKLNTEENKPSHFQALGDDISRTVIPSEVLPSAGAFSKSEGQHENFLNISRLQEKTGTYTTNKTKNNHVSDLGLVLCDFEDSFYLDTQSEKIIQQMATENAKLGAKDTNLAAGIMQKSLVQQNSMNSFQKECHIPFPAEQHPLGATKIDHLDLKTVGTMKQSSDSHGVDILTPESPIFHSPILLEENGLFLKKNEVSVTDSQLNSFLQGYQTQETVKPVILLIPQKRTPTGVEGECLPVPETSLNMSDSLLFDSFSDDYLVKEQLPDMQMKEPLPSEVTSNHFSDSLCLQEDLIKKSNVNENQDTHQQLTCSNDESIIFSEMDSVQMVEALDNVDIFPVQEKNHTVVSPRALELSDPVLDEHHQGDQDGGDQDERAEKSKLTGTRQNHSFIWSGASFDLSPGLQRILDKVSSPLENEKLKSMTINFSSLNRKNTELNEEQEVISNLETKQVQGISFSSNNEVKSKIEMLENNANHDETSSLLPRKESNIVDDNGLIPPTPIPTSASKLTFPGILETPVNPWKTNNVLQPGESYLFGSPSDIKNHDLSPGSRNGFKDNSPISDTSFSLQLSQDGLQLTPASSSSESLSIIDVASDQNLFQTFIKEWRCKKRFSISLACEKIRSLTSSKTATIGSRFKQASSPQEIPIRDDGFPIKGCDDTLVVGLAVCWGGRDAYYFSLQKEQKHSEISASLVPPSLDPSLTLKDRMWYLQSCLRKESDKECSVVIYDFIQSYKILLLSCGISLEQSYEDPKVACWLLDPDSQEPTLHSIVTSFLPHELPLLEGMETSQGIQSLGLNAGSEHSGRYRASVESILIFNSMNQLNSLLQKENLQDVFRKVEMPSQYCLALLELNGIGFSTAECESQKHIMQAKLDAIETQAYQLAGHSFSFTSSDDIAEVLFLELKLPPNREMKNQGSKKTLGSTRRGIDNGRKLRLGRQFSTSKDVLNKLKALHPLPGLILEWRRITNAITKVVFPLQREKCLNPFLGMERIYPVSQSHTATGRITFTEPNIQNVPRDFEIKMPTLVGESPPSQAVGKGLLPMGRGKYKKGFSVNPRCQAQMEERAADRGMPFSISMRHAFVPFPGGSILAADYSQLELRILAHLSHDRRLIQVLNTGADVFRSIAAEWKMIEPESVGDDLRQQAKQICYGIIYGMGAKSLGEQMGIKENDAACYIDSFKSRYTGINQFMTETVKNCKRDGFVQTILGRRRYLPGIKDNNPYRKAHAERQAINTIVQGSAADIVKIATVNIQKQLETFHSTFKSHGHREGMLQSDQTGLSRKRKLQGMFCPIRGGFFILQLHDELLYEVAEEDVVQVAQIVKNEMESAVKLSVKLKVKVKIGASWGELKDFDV

TTTTTTTTTTTTTTTTTTTTTTTTTTTTT (ssDNA) [RP316FAM5 (29 nt ssDNA)]
binding result: binds
